Key:
Assay in all cases: enzyme kinetics, competitive (alternate substrate) inhibition of Glut-Ala-Ala-Phe-MNA hydrolysis, Dixon plot; insulin B chain varied from 1 to 40 µM against hydrolysis of the fluorogenic substrate Glut-Ala-Ala-Phe-MNA by NEP or mutant; Ki from ID50 = Ki(1+[S]/Km); 37°C, 20 mM MES buffer, pH 6.5
[1] = molecular target: secreted form of human neprilysin, mutant F563I (human)
[2] = molecular target: secreted form of human neprilysin, mutant F563L (human)
[3] = molecular target: secreted form of human neprilysin, mutant F563V (human)
[4] = molecular target: secreted form of human neprilysin, mutant F563M (human)
[5] = molecular target: secreted form of human neprilysin (shNEP), wild type (human) (UniProt P08473)

insulin B chain, sequence (P01317 25-54): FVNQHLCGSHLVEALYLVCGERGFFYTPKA

## insulin B chain (from UniProt P01317 25-54) (peptide)
[1]
  Ki: 2500 nM
[2]
  Ki: 1500 nM
[3]
  Ki: 1000 nM
[4]
  Ki: 1200 nM
[5]
  Ki: 1900 nM

From article PMC3285688, “Active Site Mutations Change the Cleavage Specificity of Neprilysin” (PLoS ONE, 2012)
